± gives the uncertainty stated by the source.
B1: Proto-oncogene vav, residues 782 to 842; numbered along this chain, P15498 (parent)
chain: KYFGTAKARYDFCARDRSELSLKEGDIIKILNKKGQQGWWRGEIYGRVGWFPANYVEEDYS

Variants of: B1
Test: abundance fitness (aPCA) (normalised: wild type 0, dead -1); higher = more abundant; growth selection in yeast, the domain comes from the species named
Conditions: Homo sapiens

**Q.** Which abundance fitness does the source give for KYFGTAKARYDFCARDRSELSLKEGDIIKILNWKGQQGWWRGEIYGRVGWFPANYVEEDYS [K33W] here?
**A.** -0.693 ± 0.11

**Q.** For KYFGTAKARYDFCARDRSELSLKEGDIIKILNKKGQGGWWRGEIYGRVGWFPANYVEEDYS [Q37G], which abundance fitness is on record?
**A.** 0.029 ± 0.11

**Q.** For KYFGTAKARYDFCARDRSELSLKEGDIIKILNKKGQFGWWRGEIYGRVGWFPANYVEEDYS [Q37F], which abundance fitness is on record?
**A.** -0.186 ± 0.094

**Q.** With KYFGTAKARYDFCARDRSELSLKEGDIIKILNKKGQEGWWRGEIYGRVGWFPANYVEEDYS [Q37E] as the variant, how does the abundance fitness read?
**A.** 0.033 ± 0.12

**Q.** Which abundance fitness does the source give for KYFGTAKARYDFCARDRSELSLKEGDIIKILNKKGQHGWWRGEIYGRVGWFPANYVEEDYS [Q37H] here?
**A.** 0.037 ± 0.11

**Q.** For KYFGTAKARYDFCARDRSELSLKEGDIIKILNKKGQAGWWRGEIYGRVGWFPANYVEEDYS [Q37A], which abundance fitness is on record?
**A.** -0.044 ± 0.075

**Q.** For KYFGTAKARYDFCARDRSELSLKEGDIIKILNKKGQDGWWRGEIYGRVGWFPANYVEEDYS [Q37D], which abundance fitness is on record?
**A.** -0.008 ± 0.12

**Q.** For KYFGTAKARYDFCARDRSELSLKEGDIIKILNKKGQCGWWRGEIYGRVGWFPANYVEEDYS [Q37C], which abundance fitness is on record?
**A.** -0.02 ± 0.097

**Q.** Which abundance fitness does the source give for KYFGTAKARYDFCARDRSELSLKEGDIIKILNKQGQQGWWRGEIYGRVGWFPANYVEEDYS [K34Q] here?
**A.** 0.031 ± 0.072

**Q.** Which abundance fitness does the source give for KYFGTAKARYDFCARDRSELSLKEGDIIKILNKSGQQGWWRGEIYGRVGWFPANYVEEDYS [K34S] here?
**A.** -0.05 ± 0.085

**Q.** Which abundance fitness does the source give for KYFGTAKARYDFCARDRSELSLKEGDIIKILNKDGQQGWWRGEIYGRVGWFPANYVEEDYS [K34D] here?
**A.** -0.054 ± 0.17

**Q.** For KYFGTAKARYDFCARDRSELSLKEGDIIKILNKPGQQGWWRGEIYGRVGWFPANYVEEDYS [K34P], which abundance fitness is on record?
**A.** -0.165 ± 0.079

**Q.** Which abundance fitness does the source give for KYFGTAKARYDFCARDRSELSLKEGDIIKILNKLGQQGWWRGEIYGRVGWFPANYVEEDYS [K34L] here?
**A.** -0.268 ± 0.065

**Q.** Which abundance fitness does the source give for KYFGTAKARYDFCARDRSELSLKEGDIIKILNKFGQQGWWRGEIYGRVGWFPANYVEEDYS [K34F] here?
**A.** -0.363 ± 0.31

**Q.** Which abundance fitness does the source give for KYFGTAKARYDFCARDRSELSLKEGDIIKILNKVGQQGWWRGEIYGRVGWFPANYVEEDYS [K34V] here?
**A.** -0.072 ± 0.075

**Q.** With KYFGTAKARYDFCARDRSELSLKEGDIIKILNKGGQQGWWRGEIYGRVGWFPANYVEEDYS [K34G] as the variant, how does the abundance fitness read?
**A.** -0.051 ± 0.07

**Q.** With KYFGTAKARYDFCARDRSELSLKEGDIIKILNKHGQQGWWRGEIYGRVGWFPANYVEEDYS [K34H] as the variant, how does the abundance fitness read?
**A.** -0.03 ± 0.11

**Q.** Which abundance fitness does the source give for KYFGTAKARYDFCARDRSELSLKEGDIIKILNKEGQQGWWRGEIYGRVGWFPANYVEEDYS [K34E] here?
**A.** 0.068 ± 0.1

**Q.** With KYFGTAKARYDFCARDRSELSLKEGDIIKILNKRGQQGWWRGEIYGRVGWFPANYVEEDYS [K34R] as the variant, how does the abundance fitness read?
**A.** 0.019 ± 0.043

**Q.** With KYFGTAKARYDFCARDRSELSLKEGDIIKILNKIGQQGWWRGEIYGRVGWFPANYVEEDYS [K34I] as the variant, how does the abundance fitness read?
**A.** -0.424 ± 0.17

**Q.** With KYFGTAKARYDFCARDRSELSLKEGDIIKILNKNGQQGWWRGEIYGRVGWFPANYVEEDYS [K34N] as the variant, how does the abundance fitness read?
**A.** 0.068 ± 0.15

**Q.** For KYFGTAKARYDFCARDRSELSLKEGDIIKILNKCGQQGWWRGEIYGRVGWFPANYVEEDYS [K34C], which abundance fitness is on record?
**A.** -0.117 ± 0.11

**Q.** Which abundance fitness does the source give for KYFGTAKARYDFCARDRSELSLKEGDIIKILNKTGQQGWWRGEIYGRVGWFPANYVEEDYS [K34T] here?
**A.** -0.158 ± 0.094

**Q.** For KYFGTAKARYDFCARDRSELSLKEGDIIKILNKMGQQGWWRGEIYGRVGWFPANYVEEDYS [K34M], which abundance fitness is on record?
**A.** -0.22 ± 0.1

**Q.** Which abundance fitness does the source give for KYFGTAKARYDFCARDRSELSLKEGDIIKILNKYGQQGWWRGEIYGRVGWFPANYVEEDYS [K34Y] here?
**A.** -0.216 ± 0.16

**Q.** With KYFGTAKARYDFCARDRSELSLKEGDIIKILNKAGQQGWWRGEIYGRVGWFPANYVEEDYS [K34A] as the variant, how does the abundance fitness read?
**A.** -0.013 ± 0.077

**Q.** With KYFGTAKARYDFCARDRSELSLKEGDIIKILNKKWQQGWWRGEIYGRVGWFPANYVEEDYS [G35W] as the variant, how does the abundance fitness read?
**A.** -0.6 ± 0.12

**Q.** Which abundance fitness does the source give for KYFGTAKARYDFCARDRSELSLKEGDIIKILNKKVQQGWWRGEIYGRVGWFPANYVEEDYS [G35V] here?
**A.** -0.412 ± 0.076

**Q.** For KYFGTAKARYDFCARDRSELSLKEGDIIKILNKKAQQGWWRGEIYGRVGWFPANYVEEDYS [G35A], which abundance fitness is on record?
**A.** -0.346 ± 0.086

**Q.** Which abundance fitness does the source give for KYFGTAKARYDFCARDRSELSLKEGDIIKILNKKLQQGWWRGEIYGRVGWFPANYVEEDYS [G35L] here?
**A.** -0.469 ± 0.075

**Q.** With KYFGTAKARYDFCARDRSELSLKEGDIIKILNKKHQQGWWRGEIYGRVGWFPANYVEEDYS [G35H] as the variant, how does the abundance fitness read?
**A.** -0.428 ± 0.13

**Q.** For KYFGTAKARYDFCARDRSELSLKEGDIIKILNKKCQQGWWRGEIYGRVGWFPANYVEEDYS [G35C], which abundance fitness is on record?
**A.** -0.165 ± 0.093

**Q.** With KYFGTAKARYDFCARDRSELSLKEGDIIKILNKKSQQGWWRGEIYGRVGWFPANYVEEDYS [G35S] as the variant, how does the abundance fitness read?
**A.** -0.104 ± 0.07

**Q.** For KYFGTAKARYDFCARDRSELSLKEGDIIKILNKKEQQGWWRGEIYGRVGWFPANYVEEDYS [G35E], which abundance fitness is on record?
**A.** -0.165 ± 0.072

**Q.** With KYFGTAKARYDFCARDRSELSLKEGDIIKILNKKMQQGWWRGEIYGRVGWFPANYVEEDYS [G35M] as the variant, how does the abundance fitness read?
**A.** -0.324 ± 0.15

**Q.** For KYFGTAKARYDFCARDRSELSLKEGDIIKILNKKKQQGWWRGEIYGRVGWFPANYVEEDYS [G35K], which abundance fitness is on record?
**A.** -0.204 ± 0.11

**Q.** Which abundance fitness does the source give for KYFGTAKARYDFCARDRSELSLKEGDIIKILNKKNQQGWWRGEIYGRVGWFPANYVEEDYS [G35N] here?
**A.** -0.327 ± 0.24

**Q.** For KYFGTAKARYDFCARDRSELSLKEGDIIKILNKKDQQGWWRGEIYGRVGWFPANYVEEDYS [G35D], which abundance fitness is on record?
**A.** -0.155 ± 0.08

**Q.** With KYFGTAKARYDFCARDRSELSLKEGDIIKILNKKRQQGWWRGEIYGRVGWFPANYVEEDYS [G35R] as the variant, how does the abundance fitness read?
**A.** -0.287 ± 0.064

**Q.** Which abundance fitness does the source give for KYFGTAKARYDFCARDRSELSLKEGDIIKILNKKIQQGWWRGEIYGRVGWFPANYVEEDYS [G35I] here?
**A.** -0.334 ± 0.15

**Q.** Which abundance fitness does the source give for KYFGTAKARYDFCARDRSELSLKEGDIIKILNKKQQQGWWRGEIYGRVGWFPANYVEEDYS [G35Q] here?
**A.** -0.304 ± 0.13

**Q.** Which abundance fitness does the source give for KYFGTAKARYDFCARDRSELSLKEGDIIKILNKKYQQGWWRGEIYGRVGWFPANYVEEDYS [G35Y] here?
**A.** -0.643 ± 0.14

**Q.** For KYFGTAKARYDFCARDRSELSLKEGDIIKILNKKTQQGWWRGEIYGRVGWFPANYVEEDYS [G35T], which abundance fitness is on record?
**A.** -0.16 ± 0.11

**Q.** With KYFGTAKARYDFCARDRSELSLKEGDIIKILNKKPQQGWWRGEIYGRVGWFPANYVEEDYS [G35P] as the variant, how does the abundance fitness read?
**A.** -0.23 ± 0.12

— the Human Domainome abundance scans (Beltran et al. 2025)
